Measured values as given in patent US20110123508A1, “INSTRUMENT CLEANER” (NOVAPHARM RESEARCH (AUSTRALIA) PTY. LTD., priority 2008, published 2011).

What was measured:
Streptococcus mutan = assay: Challenge test of 1:100 diluted cleaners with organic load, Streptococcus mutan; conditions: cleaner diluted 1:100, organic load, 40±1° C.
[1] = system: Pseudomonas aeruginosa ATCC15442; assay: Challenge test of 1:100 diluted cleaners with organic load, Pseudomonas aeruginosa
[2] = system: Staphylococcus aureus (ATCC 6538); assay: Challenge test of 1:100 diluted cleaners with organic load, Staphylococcus aureus; conditions: cleaner diluted 1:100, organic load, 40±1° C.

B1: Subtilisin Savinase 16L (protein, UniProt P29600 1-269, looked up)
Subtilisin Savinase: AQSVPWGISRVQAPAAHNRGLTGSGVKVAVLDTGISTHPDLNIRGGASFVPGEPSTQDGNGHGTHVAGTIAALNNSIGVLGVAPSAELYAVKVLGASGSGSVSSIAQGLEWAGNNGMHVANLSLGSPSPSATLEQAVNSATSRGVLVVAASGNSGAGSISYPARYANAMAVGATDQNNNRASFSQYGAGLDIVAPGVNVQSTYPGSTYASLNGTSMATPHVAGAAALVKQKNPSWSNVQIRNHLKNTATSLGSTNLYGSGLVNAEAATR
Streptococcus mutan; 0 hrs (initial)
  Concentration CFU/ml after time, 0 hrs: 1.40E+07 CFU/ml
Streptococcus mutan; 1 hr
  Concentration CFU/ml after time, 1 hr: 3.65E+07 CFU/ml
Streptococcus mutan; 4 hrs
  Concentration CFU/ml after time, 4 hrs: 2.00E+06 CFU/ml
Streptococcus mutan; 6 hrs
  Concentration CFU/ml after time, 6 hrs: 1.60E+06 CFU/ml
Streptococcus mutan; 24 hrs
  Concentration CFU/ml after time, 24 hrs: 1.16E+06 CFU/ml
[1]; 0 hrs (initial), cleaner diluted 1:100, organic load, 40±1° C.
  Concentration CFU/ml after time, 0 hrs: 2.94E+06 CFU/ml
[1]; 1 hr, cleaner diluted 1:100, organic load, 40±1° C.
  Concentration CFU/ml after time, 1 hr: 3.69E+08 CFU/ml
[1]; 4 hr, cleaner diluted 1:100, organic load, 40±1° C.
  Concentration CFU/ml after time, 4 hr: 2.06E+09 CFU/ml
[1]; 6 hrs, cleaner diluted 1:100, organic load, 40±1° C.
  Concentration CFU/ml after time, 6 hrs: 3.80E+09 CFU/ml
[1]; 24 hrs, cleaner diluted 1:100, organic load, 40±1° C.
  Concentration CFU/ml after time, 24 hrs: 1.46E+11 CFU/ml
[1]; protease or phenoxyethanol alone at the concentrations of diluted A and B
  reduction of microorganisms by single component alone: Neither the protease nor the phenoxyethanol alone at these concentrations achieved a reduction
[2]; 0 hrs (initial)
  Concentration CFU/ml after time, 0 hrs: 4.21E+07 CFU/ml
[2]; 1 hr
  Concentration CFU/ml after time, 1 hr: 1.58E+08 CFU/ml
[2]; 4 hrs
  Concentration CFU/ml after time, 4 hrs: 1.26E+08 CFU/ml
[2]; 6 hrs
  Concentration CFU/ml after time, 6 hrs: 2.00E+08 CFU/ml
[2]; 24 hrs
  Concentration CFU/ml after time, 24 hrs: 7.94E+07 CFU/ml
